# Experimental data from patent publication US10246503B2, “Method of improving the pharmacokinetic profile of a therapeutic polypeptide and the use thereof” (BEIJING ANXINHUAIDE BIOTECH. CO., LTD, priority 2012, dated 2019).
# Molecular target: human GLP-1 receptor (GLP-1R) (human, UniProt P43220 24-463)
# Experiment: cell-based or functional assay
row,Binder,EC50 (nM) measured by cAMP assay
1,GLP-1(A8G/G22E/R36G)-Fn8-p246-COL19NC2 (ligand) HGEGTFTSDVSSYLEEQAAKEFIAWLVKGGGSGGGSGGGSGGGSGGGSGSGGAVPPPTDLRFTNIGPDTMRVTWAPPPSIDLTNFLVRYSPVKNEEDVAELSISPSDNAVVLTNLLPGTEYVVSVSSVYEQHESTPLRGRQKTGGGGSGGGSGSGSESGSGGGSTSSGTGSETESPGSGSESGSGPSSAGSGSGSESGSGSGSSGPGSTGGSGSESGSGPGSSGTGGTATGSGSESGSGPGSSGPGSTGSGSGSESGSGSGSSGTGSTGGSGSESGSGPGSPRPGSTGTGSGSESGSGPGSSERGSAGGSGSESGSGTSESSASGSTGGSGSESGSGSESGSGSGSESGSGPESPGSGGSGSESGSGTSGSTGSGSESGSGGGSGGGSGGGIPADAVSFEEIKKYINQEVLRIFEERMAVFLSQLKLPAAMLAAQAYGRP,0.6 nM
2,GLP1(A8G/G22E/R36G)-Fn8-p246-ACRP30 (ligand) HGEGTFTSDVSSYLEEQAAKEFIAWLVKGGGSGGGSGGGSGGGSGGGSGSGGAVPPPTDLRFTNIGPDTMRVTWAPPPSIDLTNFLVRYSPVKNEEDVAELSISPSDNAVVLTNLLPGTEYVVSVSSVYEQHESTPLRGRQKTGGGGSGGGSGSGSESGSGGGSTSSGTGSETESPGSGSESGSGPSSAGSGSGSESGSGSGSSGPGSTGGSGSESGSGPGSSGTGGTATGSGSESGSGPGSSGPGSTGSGSGSESGSGSGSSGTGSTGGSGSESGSGPGSPRPGSTGTGSGSESGSGPGSSERGSAGGSGSESGSGTSESSASGSTGGSGSESGSGSESGSGSGSESGSGPESPGSGGSGSESGSGTSGSTGSGSESGSGGGSGGGSGGVYRSAFSVGLETRVTVPNVPIRFTKIFYNQQNHYDGSTGKFYCNIPGLYYFSYHITVYMKDVKVSLFKKDKAVLFTYDQYQEKNVDQASGSVLLHLEVGDQVWLQVYGDGDHNGLYADNVNDSTFTGFLLYHDTN,0.6 nM
3,GLP-1(A8G/G22E/R36G)-Fn8-p271-COL18NC1 (ligand) HGEGTFTSDVSSYLEEQAAKEFIAWLVKGGGSGGGSGGGSGGGSGGGSGSGGAVPPPTDLRFTNIGPDTMRVTWAPPPSIDLTNFLVRYSPVKNEEDVAELSISPSDNAVVLTNLLPGTEYVVSVSSVYEQHESTPLRGRQKTGGGGSGGGSGGSGSESGSGGGSTSSGTGSETESPGGSGSESGSGGPSSAGSGGSGSESGSGGSGSSGPGSTGGGSGSESGSGGPGSSGTGGTATGGSGSESGSGGPGSSGPGSTGSGGSGSESGSGGSGSSGTGSTGGGSGSESGSGGPGSPRPGSTGTGGSGSESGSGGPGSSERGSAGGGSGSESGSGGTSESSASGSTGGGSGSESGSGGSESGSGGSGSESGSGGPESPGSGGGSGSESGSGGTSGSTGGSGSESGSGGGGSGGGSGGGASSGVRLWATRQAMLGQVHEVPEGWLIFVAEQEELYVRVQNGFRKVQLEARTPLPRG,0.4 nM
4,GLP-1(A8G/G22E/R36G)-Fn8-p245-COL18NC1 (ligand) HGEGTFTSDVSSYLEEQAAKEFIAWLVKGGGSGGGSGGGSGGGSGGGSGSGGAVPPPTDLRFTNIGPDTMRVTWAPPPSIDLTNFLVRYSPVKNEEDVAELSISPSDNAVVLTNLLPGTEYVVSVSSVYEQHESTPLRGRQKTGGGGSGGGSGSGSTSESGGSTSSGTGSETESPGSGSESTSGPSSAGSGSTSESGSGSGSSGPGSTGGSTSGSESGPGSSGTGGTATGSESGSTSGPGSSGPGSTGSGSTSESGSGSGSSGTGSTGGSESGSTSGPGSPRPGSTGTGSTSGSESGPGSSERGSAGGSESTSGSGTSESSASGSTGGSTSGSESGSESGSGSTSESGSGPESPGSGGSGSTSESGTSGSTGSESTSGSGGGSGGGSGGGASSGVRLWATRQAMLGQVHEVPEGWLIFVAEQEELYVRVQNGFRKVQLEARTPLPRG,0.5 nM
